Laboratory results: patent publication US20150291952, “RNA APTAMER ISOLATION VIA DUAL-CYCLE (RAPID) SELECTION” (CORNELL UNIVERSITY, published 2015)

Tests used:
CHK2 [1] = biological target: T1, CHK2 (UniProt O96017 O96017:1-543); experiment: FP; same samples as F-EMSA, Hill fit; 5 mM MgCl2, yeast tRNA, room temp; details: tags: hexahistidine; expressed in E. coli BL21(DE3)-RIPL, Ni-NTA, ~90-95% pure; label: 3'-fluorescein (fluorescein 5-thiosemicarbazide)
Method: (§1) The RNA samples were 3′-end labelled with fluorescein 5-thiosemicarbazide (Invitrogen) as described previously (Pagano et al. 2007). 50 μL binding reactions were prepared with 2 nM fluorescently-labelled RNA and decreasing amounts of protein (2000 to 0 nM) in binding buffer containing 0.01% IGEPAL CA630, 10 μg/ml yeast tRNA, and 3 U of SUPERase•In RNase Inhibitor. Reactions were prepared in black 96-well half area microplates (Corning) and incubated at room temperature for 2 hours. The plates were scanned on a Synergy H1 microplate reader (BioTek) using the Ex: 485/20 Em: 528/20 filter set to determine the Fluorescence Polarization (FP). The polarization “P” is determined from the total parallel and perpendicular polarized fluorescence according to:
(§2) In order to confirm that the two methods had independently enriched the same aptamer, we tested the unambiguous top-ranked SELEX/RAPID candidate for CHK2 binding, hereafter referred to as C6M1. […] The calculated fraction bound curve for the gel shift is also shown in FIG. 6B as the solid line (left axis). […] In order to ensure that the observed binding was not a gel artefact, we also performed a Fluorescence Polarization (FP) assay. […]

CHK2 [2] = biological target: T1, CHK2; experiment: EMSA; F-EMSA, Hill fit; 25 mM Tris pH 8.0, 10 mM NaCl, 25 mM KCl, 5 mM MgCl2, 10 ug/ml yeast tRNA, room temp; binding to contaminant not ruled out; details: tags: hexahistidine; expressed in E. coli BL21(DE3)-RIPL, Ni-NTA, ~90-95% pure; label: 3'-fluorescein (fluorescein 5-thiosemicarbazide)
Method: as §1, §2

T1 sequence (O96017 whole entry, one chain of several): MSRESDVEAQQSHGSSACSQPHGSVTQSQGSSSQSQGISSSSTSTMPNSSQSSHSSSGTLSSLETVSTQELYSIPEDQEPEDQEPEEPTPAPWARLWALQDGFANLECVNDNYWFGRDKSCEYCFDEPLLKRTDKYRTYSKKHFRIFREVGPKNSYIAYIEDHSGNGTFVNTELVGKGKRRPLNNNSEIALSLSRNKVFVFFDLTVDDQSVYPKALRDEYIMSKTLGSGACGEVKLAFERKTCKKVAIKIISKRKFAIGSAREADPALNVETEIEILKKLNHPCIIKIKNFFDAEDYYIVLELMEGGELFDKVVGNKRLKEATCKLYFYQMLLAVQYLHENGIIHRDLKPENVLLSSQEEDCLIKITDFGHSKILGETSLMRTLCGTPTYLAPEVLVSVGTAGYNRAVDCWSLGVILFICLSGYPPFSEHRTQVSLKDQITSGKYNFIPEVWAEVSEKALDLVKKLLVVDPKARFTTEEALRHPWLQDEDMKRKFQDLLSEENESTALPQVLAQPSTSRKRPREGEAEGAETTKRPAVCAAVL

B1: C6M1 (ssRNA)
RNA: GGGAAUGGAUCCACAUCUACGAAUUCGAUCGGUUCCAACGCUCUGUCGCCUAAGUGAACAGAUGAAGAAAAAAUAGCCCAAUAAGAGGCAACAAUCUUUCACUGCAGACUUGACGAAGCUU
modifications: RNA transcript; SEQ:21 is the random region, assayed RNA also carries both library constant regions (reverse complement of the SEQ:22 flanks) [positions count without the 26-nt 5-prime fixed region]
CHK2 [1]
  Kd: 299 nM
CHK2 [2]
  Kd: 180 nM
